Values of other authors in article PMC9960319.

Target: intermediate-affinity IL-2 receptor (Homo sapiens) (UniProt P14784)
UniProt P14784, sequence (P14784 27-240, chain 1 of 2): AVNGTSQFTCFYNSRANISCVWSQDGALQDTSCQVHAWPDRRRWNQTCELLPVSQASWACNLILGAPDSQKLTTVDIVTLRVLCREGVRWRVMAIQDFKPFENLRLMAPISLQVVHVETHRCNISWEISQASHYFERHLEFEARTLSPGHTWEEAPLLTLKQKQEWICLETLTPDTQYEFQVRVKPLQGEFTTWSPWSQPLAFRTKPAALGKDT
UniProt P14784, sequence (P31785 23-262, chain 2 of 2, further chain): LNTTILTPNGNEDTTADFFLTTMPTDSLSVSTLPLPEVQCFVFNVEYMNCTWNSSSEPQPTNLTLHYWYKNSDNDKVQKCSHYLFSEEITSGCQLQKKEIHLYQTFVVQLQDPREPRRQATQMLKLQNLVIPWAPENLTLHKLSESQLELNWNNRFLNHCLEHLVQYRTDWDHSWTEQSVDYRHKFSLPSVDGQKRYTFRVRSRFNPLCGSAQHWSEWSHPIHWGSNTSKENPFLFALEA

Substance: IL-2 moiety (from UniProt P60568)
- Kd: 40 nM
